Assay results reported in US20220125824A1.

Biological target: mCherry-MazF (E. coli MazF ribonuclease fused to the C terminus of mCherry) (E. coli) (UniProt P0AE70)
Assay: cell-based or functional assay

Sequence of UniProt P0AE70 (P0AE70 whole entry, the tested form may be a part): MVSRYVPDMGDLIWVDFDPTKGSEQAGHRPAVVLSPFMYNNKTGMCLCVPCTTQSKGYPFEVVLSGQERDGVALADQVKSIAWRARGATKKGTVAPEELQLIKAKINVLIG

“E. coli antitoxin MazE (from UniProt P0AE72 1-82)” gave a mortality (MTT assay) of lung cancer cells co-infected with MazF and MazE viruses at a 1:0.5 MOI ratio of 36% and a yield of MazF-encoding adenovirus in HEK293 packaging cells that constitutively express MazE, compared with parental HEK293 cells (orders of magnitude) of 2.
